“And” between values parts separate entries of the source, which are not always exact repeats. Equal values may be shown once.
T1: plasminogen, P00747
T1 chain: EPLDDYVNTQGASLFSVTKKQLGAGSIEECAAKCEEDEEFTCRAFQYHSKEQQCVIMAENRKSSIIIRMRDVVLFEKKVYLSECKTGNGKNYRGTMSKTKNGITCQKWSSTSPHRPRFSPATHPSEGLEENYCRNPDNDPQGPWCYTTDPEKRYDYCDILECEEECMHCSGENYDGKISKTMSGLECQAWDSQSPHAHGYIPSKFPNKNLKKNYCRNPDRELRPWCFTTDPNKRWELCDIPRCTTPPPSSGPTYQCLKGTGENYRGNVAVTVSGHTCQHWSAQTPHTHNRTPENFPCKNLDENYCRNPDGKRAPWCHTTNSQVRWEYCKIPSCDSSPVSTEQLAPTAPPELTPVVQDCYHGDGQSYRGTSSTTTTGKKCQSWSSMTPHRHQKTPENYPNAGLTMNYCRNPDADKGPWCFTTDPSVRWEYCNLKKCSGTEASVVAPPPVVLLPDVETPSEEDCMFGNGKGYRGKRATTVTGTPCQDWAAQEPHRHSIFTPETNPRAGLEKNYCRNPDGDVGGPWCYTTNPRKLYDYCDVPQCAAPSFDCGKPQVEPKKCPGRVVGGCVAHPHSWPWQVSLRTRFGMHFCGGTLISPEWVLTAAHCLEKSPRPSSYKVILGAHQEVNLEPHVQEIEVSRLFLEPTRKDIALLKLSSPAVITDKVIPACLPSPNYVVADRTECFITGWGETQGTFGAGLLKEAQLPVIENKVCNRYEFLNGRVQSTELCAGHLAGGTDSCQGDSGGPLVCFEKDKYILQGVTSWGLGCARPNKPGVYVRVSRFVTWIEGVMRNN


Molecular target: T1, plasminogen, P00747

Row | Protein | Kcat | Kcat/Km | Km
1 | KGD-Sak · plasmin complex (protein) chain 1: SSSFDKGKYKKGDDASYFEPTGPTLMVNVTGVDGKRNELLSPRYVEFPIKPGTTLTKEKIEYYVEWALDATAYKEFRVVELDPSAKIEVTYYDKNKKKEETKSFPITEKGDVVPDLSEHIKNPGFNLITKVVIEKK chain 2: KVYLSECKTGNGKNYRGTMSKTKNGITCQKWSSTSPHRPRFSPATHPSEGLEENYCRNPDNDPQGPWCYTTDPEKRYDYCDILECEEECMHCSGENYDGKISKTMSGLECQAWDSQSPHAHGYIPSKFPNKNLKKNYCRNPDRELRPWCFTTDPNKRWELCDIPRCTTPPPSSGPTYQCLKGTGENYRGNVAVTVSGHTCQHWSAQTPHTHNRTPENFPCKNLDENYCRNPDGKRAPWCHTTNSQVRWEYCKIPSCDSSPVSTEQLAPTAPPELTPVVQDCYHGDGQSYRGTSSTTTTGKKCQSWSSMTPHRHQKTPENYPNAGLTMNYCRNPDADKGPWCFTTDPSVRWEYCNLKKCSGTEASVVAPPPVVLLPDVETPSEEDCMFGNGKGYRGKRATTVTGTPCQDWAAQEPHRHSIFTPETNPRAGLEKNYCRNPDGDVGGPWCYTTNPRKLYDYCDVPQCAAPSFDCGKPQVEPKKCPGRVVGGCVAHPHSWPWQVSLRTRFGMHFCGGTLISPEWVLTAAHCLEKSPRPSSYKVILGAHQEVNLEPHVQEIEVSRLFLEPTRKDIALLKLSSPAVITDKVIPACLPSPNYVVADRTECFITGWGETQGTFGAGLLKEAQLPVIENKVCNRYEFLNGRVQSTELCAGHLAGGTDSCQGDSGGPLVCFEKDKYILQGVTSWGLGCARPNKPGVYVRVSRFVTWIEGVMRNN | 1.46 s⁻¹ | 0.1 | 14.1 µM
2 | Sak · plasmin complex (protein) chain 1: SSSFDKGKYKKGDDASYFEPTGPYLMVNVTGVDGKGNELLSPHYVEFPIKPGTTLTKEKIEYYVEWALDATAYKEFRVVELDPSAKIEVTYYDKNKKKEETKSFPITEKGFVVPDLSEHIKNPGFNLITKVVIEKK chain 2: KVYLSECKTGNGKNYRGTMSKTKNGITCQKWSSTSPHRPRFSPATHPSEGLEENYCRNPDNDPQGPWCYTTDPEKRYDYCDILECEEECMHCSGENYDGKISKTMSGLECQAWDSQSPHAHGYIPSKFPNKNLKKNYCRNPDRELRPWCFTTDPNKRWELCDIPRCTTPPPSSGPTYQCLKGTGENYRGNVAVTVSGHTCQHWSAQTPHTHNRTPENFPCKNLDENYCRNPDGKRAPWCHTTNSQVRWEYCKIPSCDSSPVSTEQLAPTAPPELTPVVQDCYHGDGQSYRGTSSTTTTGKKCQSWSSMTPHRHQKTPENYPNAGLTMNYCRNPDADKGPWCFTTDPSVRWEYCNLKKCSGTEASVVAPPPVVLLPDVETPSEEDCMFGNGKGYRGKRATTVTGTPCQDWAAQEPHRHSIFTPETNPRAGLEKNYCRNPDGDVGGPWCYTTNPRKLYDYCDVPQCAAPSFDCGKPQVEPKKCPGRVVGGCVAHPHSWPWQVSLRTRFGMHFCGGTLISPEWVLTAAHCLEKSPRPSSYKVILGAHQEVNLEPHVQEIEVSRLFLEPTRKDIALLKLSSPAVITDKVIPACLPSPNYVVADRTECFITGWGETQGTFGAGLLKEAQLPVIENKVCNRYEFLNGRVQSTELCAGHLAGGTDSCQGDSGGPLVCFEKDKYILQGVTSWGLGCARPNKPGVYVRVSRFVTWIEGVMRNN | 1.03 s⁻¹ and 1.06 s⁻¹ | 0.16 | 6.42 µM and 6.51 µM
3 | RGD-Sak · plasmin complex (protein) chain 1: SSSFDKGKYKKGDDASYFEPTGPTLMVNVTGVDGKRNELLSPRYVEFPIKPGTTLTKEKIEYYVEWALDATAYKEFRVVELDPSAKIEVTYYDKNKKKEETKSFPITERGDVVPDLSEHIKNPGFNLITKVVIEKK chain 2: KVYLSECKTGNGKNYRGTMSKTKNGITCQKWSSTSPHRPRFSPATHPSEGLEENYCRNPDNDPQGPWCYTTDPEKRYDYCDILECEEECMHCSGENYDGKISKTMSGLECQAWDSQSPHAHGYIPSKFPNKNLKKNYCRNPDRELRPWCFTTDPNKRWELCDIPRCTTPPPSSGPTYQCLKGTGENYRGNVAVTVSGHTCQHWSAQTPHTHNRTPENFPCKNLDENYCRNPDGKRAPWCHTTNSQVRWEYCKIPSCDSSPVSTEQLAPTAPPELTPVVQDCYHGDGQSYRGTSSTTTTGKKCQSWSSMTPHRHQKTPENYPNAGLTMNYCRNPDADKGPWCFTTDPSVRWEYCNLKKCSGTEASVVAPPPVVLLPDVETPSEEDCMFGNGKGYRGKRATTVTGTPCQDWAAQEPHRHSIFTPETNPRAGLEKNYCRNPDGDVGGPWCYTTNPRKLYDYCDVPQCAAPSFDCGKPQVEPKKCPGRVVGGCVAHPHSWPWQVSLRTRFGMHFCGGTLISPEWVLTAAHCLEKSPRPSSYKVILGAHQEVNLEPHVQEIEVSRLFLEPTRKDIALLKLSSPAVITDKVIPACLPSPNYVVADRTECFITGWGETQGTFGAGLLKEAQLPVIENKVCNRYEFLNGRVQSTELCAGHLAGGTDSCQGDSGGPLVCFEKDKYILQGVTSWGLGCARPNKPGVYVRVSRFVTWIEGVMRNN | 1.41 s⁻¹ | 0.11 | 12.5 µM
